Laboratory results published in US20220033501A1.

Columns and labels:
[1] = molecular target: monkey TIM-3 extracellular domain protein with hFc tag (cTIM-3-hFc) (monkey); experiment: ELISA, coated monkey TIM-3 ECD protein, 66.667 nM antibody
[2] = molecular target: murine TIM-3 extracellular domain protein with hFc tag (mTIM-3-hFc) (mouse) (UniProt Q8VIM0); experiment: ELISA, coated mouse TIM-3 ECD protein, 0 nM antibody
[3] = molecular target: human TIM-3 extracellular domain protein with hFc tag (hTIM-3-hFc) (human) (UniProt Q8TDQ0); experiment: FACS, blocking of hTIM-3-hFc binding to phosphatidylserine on apoptotic Jurkat cells, 66.667 nM antibody
Sequence of human TIM-3 extracellular domain protein with hFc tag (hTIM-3-hFc) (human) (Q8TDQ0 22-200): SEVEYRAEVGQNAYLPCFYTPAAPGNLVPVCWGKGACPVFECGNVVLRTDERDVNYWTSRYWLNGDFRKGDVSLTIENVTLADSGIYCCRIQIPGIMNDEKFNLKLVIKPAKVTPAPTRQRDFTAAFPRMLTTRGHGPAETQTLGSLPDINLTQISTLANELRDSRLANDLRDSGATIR

[4] = molecular target: monkey TIM-3 on CHOK1 stable cell line (CHOK1-cTIM-3) (monkey); experiment: FACS, CHOK1-cTIM-3 cells, 0.013 nM antibody
Sequence of monkey TIM-3 on CHOK1 stable cell line (CHOK1-cTIM-3) (monkey) (chain, as listed by the source limits assumed): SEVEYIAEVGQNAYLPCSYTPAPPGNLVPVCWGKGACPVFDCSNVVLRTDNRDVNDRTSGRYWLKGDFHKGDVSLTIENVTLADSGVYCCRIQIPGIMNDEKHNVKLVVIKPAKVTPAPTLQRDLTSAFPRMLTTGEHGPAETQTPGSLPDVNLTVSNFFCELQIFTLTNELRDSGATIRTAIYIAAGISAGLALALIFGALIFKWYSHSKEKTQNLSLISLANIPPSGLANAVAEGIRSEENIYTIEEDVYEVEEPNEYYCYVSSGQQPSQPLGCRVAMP

[5] = molecular target: TIM-3 protein on human peripheral blood mononuclear lymphocytes (PBMC) (human) (UniProt Q8TDQ0); experiment: cell-based or functional assay
Sequence of TIM-3 protein on human peripheral blood mononuclear lymphocytes (PBMC) (human) (Q8TDQ0 22-301 limits assumed): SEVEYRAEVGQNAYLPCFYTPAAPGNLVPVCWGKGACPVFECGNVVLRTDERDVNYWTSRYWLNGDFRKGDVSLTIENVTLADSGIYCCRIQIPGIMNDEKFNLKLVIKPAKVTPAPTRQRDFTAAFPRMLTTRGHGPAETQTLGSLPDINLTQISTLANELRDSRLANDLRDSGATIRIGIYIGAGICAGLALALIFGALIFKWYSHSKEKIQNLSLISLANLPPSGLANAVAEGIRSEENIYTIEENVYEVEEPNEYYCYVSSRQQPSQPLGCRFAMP

[6] = molecular target: human TIM-3 extracellular domain protein with hFc tag (hTIM-3-hFc) (human) (UniProt Q8TDQ0); experiment: ELISA, coated human TIM-3 ECD protein, 0 nM antibody
[7] = molecular target: human TIM-3 on CHOK1 stable cell line (CHOK1-hTIM-3) (human) (UniProt Q8TDQ0); experiment: FACS, CHOK1-hTIM-3 cells, 0.064 nM antibody
Sequence of human TIM-3 on CHOK1 stable cell line (CHOK1-hTIM-3) (human) (Q8TDQ0 22-301 limits assumed): as above

[8] = molecular target: human TIM-3 extracellular domain protein with hFc tag (hTIM-3-hFc) (human) (UniProt Q8TDQ0); experiment: ELISA, coated human TIM-3 ECD protein, 0.0007 nM antibody
[9] = molecular target: human TIM-3 extracellular domain protein with hFc tag (hTIM-3-hFc) (human) (UniProt Q8TDQ0); experiment: ELISA, coated human TIM-3 ECD protein, 0.0667 nM antibody
[10] = molecular target: monkey TIM-3 on CHOK1 stable cell line (CHOK1-cTIM-3) (monkey); experiment: FACS, CHOK1-cTIM-3 cells, 1.6 nM antibody
[11] = molecular target: human TIM-3 extracellular domain protein with hFc tag (hTIM-3-hFc) (human) (UniProt Q8TDQ0); experiment: FACS, blocking of hTIM-3-hFc binding to phosphatidylserine on apoptotic Jurkat cells, 0.274 nM antibody
[12] = molecular target: murine TIM-3 extracellular domain protein with hFc tag (mTIM-3-hFc) (mouse) (UniProt Q8VIM0); experiment: ELISA, coated mouse TIM-3 ECD protein, 66.667 nM antibody
[13] = molecular target: monkey TIM-3 extracellular domain protein with hFc tag (cTIM-3-hFc) (monkey); experiment: ELISA, coated monkey TIM-3 ECD protein, 0.0667 nM antibody
[14] = molecular target: monkey TIM-3 extracellular domain protein with hFc tag (cTIM-3-hFc) (monkey); experiment: ELISA, coated monkey TIM-3 ECD protein, 0.0001 nM antibody
[15] = molecular target: monkey TIM-3 extracellular domain protein with hFc tag (cTIM-3-hFc) (monkey); experiment: ELISA, coated monkey TIM-3 ECD protein, 0.0007 nM antibody
[16] = molecular target: human TIM-3 on CHOK1 stable cell line (CHOK1-hTIM-3) (human) (UniProt Q8TDQ0); experiment: FACS, CHOK1-hTIM-3 cells, 1.6 nM antibody
[17] = molecular target: monkey TIM-3 on CHOK1 stable cell line (CHOK1-cTIM-3) (monkey); experiment: FACS, CHOK1-cTIM-3 cells, 40 nM antibody

Sequence of monkey TIM-3 extracellular domain protein with hFc tag (cTIM-3-hFc) (monkey) (chain, as listed by the source): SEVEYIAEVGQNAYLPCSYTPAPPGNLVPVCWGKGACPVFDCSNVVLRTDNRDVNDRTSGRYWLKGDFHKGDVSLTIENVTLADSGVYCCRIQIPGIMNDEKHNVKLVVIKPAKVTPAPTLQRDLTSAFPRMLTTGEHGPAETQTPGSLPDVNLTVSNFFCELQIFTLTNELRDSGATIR
Sequence of murine TIM-3 extracellular domain protein with hFc tag (mTIM-3-hFc) (mouse) (Q8VIM0 other isoform, or with tags, fused parts or gaps): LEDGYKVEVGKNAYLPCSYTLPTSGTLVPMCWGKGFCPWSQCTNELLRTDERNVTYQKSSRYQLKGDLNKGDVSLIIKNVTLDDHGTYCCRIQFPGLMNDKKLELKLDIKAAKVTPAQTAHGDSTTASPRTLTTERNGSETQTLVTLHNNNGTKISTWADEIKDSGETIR

In the case of human IgG control (antibody), the OD450 [1] is reported as 0.43, the OD450 [2] is reported as 0.23 and the Inhibition ratio (%) [3] is reported as 9.6%. The Mean fluorescence intensity [4] was 2.8, the IFN-γ production (donor X); antibody 0.1 µg/ml, N = 1 [5] was 2040 pg/mL and the IFN-γ production (donor X); antibody 0.1 µg/ml, N = 2 [5] was 2060 pg/mL. For the same substance, the IFN-γ production (donor X); antibody 1 µg/ml, N = 1 [5] was 2090 pg/mL, the IFN-γ production (donor X); antibody 1 µg/ml, N = 2 [5] was 2070 pg/mL and the IFN-γ production (donor X); antibody 10 µg/ml, N = 1 [5] was 2030 pg/mL. The IFN-γ production (donor X); antibody 10 µg/ml, N = 2 [5] was 2020 pg/mL, the IFN-γ production (donor X); antibody '0' (4th head as printed), N = 1 [5] was 2260 pg/mL and the IFN-γ production (donor X); antibody '0' (4th head as printed), N = 2 [5] was 1900 pg/mL. It also gave an IFN-γ production (donor X); antibody '0' (5th head as printed), N = 1 [5] of 2000 pg/mL, an IFN-γ production (donor X); antibody '0' (5th head as printed), N = 2 [5] of 2320 pg/mL and an OD450 [6] of 0.07. It also gave a Mean fluorescence intensity [7] of 2.8, an OD450 [8] of 0.07 and an OD450 [9] of 0.07. It also gave a Mean fluorescence intensity [10] of 3.2, an Inhibition ratio (%) [11] of -20% and an OD450 [12] of 0.73. It also gave an OD450 [13] of 0.13, an OD450 [14] of 0.13 and an OD450 [15] of 0.14. For the same substance, the Mean fluorescence intensity [16] was 3.1 and the Mean fluorescence intensity [17] was 6.
